One molecule from patent publication US20200270301A1 (UBIPROTEIN, published 2020) can be followed below.

For the test, the target named is T1, HA-ubiquitin (expressed from pMT123-HA-ubiquitin) (UniProt P0CG48 1-76).
T1 construct: Co-expressed in HEK 293T cells and detected with anti-HA after anti-myc immunoprecipitation; It attaches covalently (isopeptide bond, polyubiquitin chains); P0CG48 is the polyubiquitin-C precursor; a single ubiquitin unit is 76 residues; not shown: HA tag of the pMT123-HA-ubiquitin plasmid
Put plainly: covalent ubiquitination in HEK 293T cells: anti-myc IP, anti-HA Western blot. (In general: A western blot detects proteins with antibodies after separation by electrophoresis.)

B1: myc-EGF WT (expressed from pcDNA3-myc-EGF WT) (ligand)
chain: NSDSECPLSHDGYCLHDGVCMYIEALDKYACNCVVGYIGERCQYRDLKWWELR
modifications: not fully specified
notes: Expressed inside HEK 293T cells; also called human EGF; not shown: myc tag of the pcDNA3-myc vector
Consider B1, for which the binding result was “binds”.
